This assay addresses T1, mCAT1, ecotropic retroviral receptor (cationic amino acid transporter), expressed on human 911 cells … (mouse, UniProt Q09143 1-622).
T1 construct: whole, on cells; also called mATRC1; 911-mCAT1-3H7
Put plainly: phage binding to cells, elution with triethylamine, titering (cfu).

T1 sequence (Q09143 whole entry): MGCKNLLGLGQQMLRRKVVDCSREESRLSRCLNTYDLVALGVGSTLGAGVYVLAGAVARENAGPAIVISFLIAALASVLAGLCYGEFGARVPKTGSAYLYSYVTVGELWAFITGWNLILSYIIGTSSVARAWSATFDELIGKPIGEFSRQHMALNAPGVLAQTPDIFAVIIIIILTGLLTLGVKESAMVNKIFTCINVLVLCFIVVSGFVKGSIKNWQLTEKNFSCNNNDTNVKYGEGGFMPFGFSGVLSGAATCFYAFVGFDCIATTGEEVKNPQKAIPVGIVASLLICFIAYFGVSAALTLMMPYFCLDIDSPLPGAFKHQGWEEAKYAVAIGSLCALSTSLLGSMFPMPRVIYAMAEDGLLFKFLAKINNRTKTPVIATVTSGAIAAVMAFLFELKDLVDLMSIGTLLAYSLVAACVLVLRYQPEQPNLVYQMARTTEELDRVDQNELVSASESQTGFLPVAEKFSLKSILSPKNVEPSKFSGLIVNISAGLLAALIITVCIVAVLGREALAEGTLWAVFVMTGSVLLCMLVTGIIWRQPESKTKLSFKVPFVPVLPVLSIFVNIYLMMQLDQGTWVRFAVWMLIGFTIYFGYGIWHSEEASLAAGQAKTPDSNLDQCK

B1: gpIII/env3 phage (ecotropic Moloney MuLV envelope residues 34-266 displayed as a fusion with M13 gpIII) (other)
chain: ASPGSSPHQVYNITWEVTNGDRETVWATSGNHPLWTWWPDLTPDLCMLAHHGPSYWGLEYQSPFSSPPGPPCCSGGSSPGCSRDCEEPLTSLTPRCNTAWNRLKLDQTTHKSNEGFYVCPGPHRPRESKSCGGPDSFYCAYWGCETTGRAYWKPSSSWDFITVNNNLTSDQAVQVCKDNKWCNPLVIRFTDAGRRVTSWTTGHYWGLRLYVSGQDPGLTFGIRLRYQNLGPRVTSGGGGS
notes: range 34-266; Tested as whole phage particles. pelB leader left out; also called construct 3
Regarding B1, the “times more eluted phage from 911-mCAT1 cell line as compared to 911-pcDNA3 cell line” value worked out at 26 times.

B2: gpIII/env1 phage (ecotropic Moloney MuLV envelope residues 34-468 displayed as a fusion with M13 gpIII) (other)
chain: ASPGSSPHQVYNITWEVTNGDRETVWATSGNHPLWTWWPDLTPDLCMLAHHGPSYWGLEYQSPFSSPPGPPCCSGGSSPGCSRDCEEPLTSLTPRCNTAWNRLKLDQTTHKSNEGFYVCPGPHRPRESKSCGGPDSFYCAYWGCETTGRAYWKPSSSWDFITVNNNLTSDQAVQVCKDNKWCNPLVIRFTDAGRRVTSWTTGHYWGLRLYVSGQDPGLTFGIRLRYQNLGPRVPIGPNPVLADQQPLSKPKPVKSPSVTKPPSGTPLSPTQLPPAGTENRLLNLVDGAYQALNLTSPDKTQECWLCLVAGPPYYEGVAVLGTYSNHTSAPANCSVASQHKLTLSEVTGQGLCIGAVPKTHQALCNTTQTSSRGSYYLVAPTGTMWACSTGLTPCISTTILNLTTDYCVLVELWPRVTYHSPSYVYGLFERSNRHKTSGGGGSPFVCEYQGQSSDLPQPPVNAGGGSGGGSGGGSEGGGSEGGGSEGGGSEGGGSGGGSGSGDFDYEKMANANKGAMTENADENALQSDAKGKLDSVATDYGAAIDGFIGDVSGLANGNGATGDFAGSNSQMAQVGDGDNSPLMNNFRQYLPSLPQSVECRPFVFSAGKPYEFSIDCDKINLFRGVFAFLLYVATFMYVFSTFANILRNKES
notes: Tested as whole phage particles displaying the fusion; also called construct 1
With B2, the “times more eluted phage from 911-mCAT1 cell line as compared to 911-pcDNA3 cell line” value worked out at 11 times.

B3: gpIII/env2 phage (ecotropic Moloney MuLV envelope residues 34-308 displayed as a fusion with M13 gpIII) (other)
chain: ASPGSSPHQVYNITWEVTNGDRETVWATSGNHPLWTWWPDLTPDLCMLAHHGPSYWGLEYQSPFSSPPGPPCCSGGSSPGCSRDCEEPLTSLTPRCNTAWNRLKLDQTTHKSNEGFYVCPGPHRPRESKSCGGPDSFYCAYWGCETTGRAYWKPSSSWDFITVNNNLTSDQAVQVCKDNKWCNPLVIRFTDAGRRVTSWTTGHYWGLRLYVSGQDPGLTFGIRLRYQNLGPRVPIGPNPVLADQQPLSKPKPVKSPSVTKPPSGTPLSPTQLPPATSGGGGS
notes: range 34-308; Tested as whole phage particles. pelB leader left out; also called construct 2
As for B3, the “times more eluted phage from 911-mCAT1 cell line as compared to 911-pcDNA3 cell line” value came out at 97 times.

The values are drawn from US20030049605A1 (published 2003).
